The results in this text go back to article PMC9108619.

The test deals with T1, UPF2 (endogenous), Q9HAU5.
T1 chain: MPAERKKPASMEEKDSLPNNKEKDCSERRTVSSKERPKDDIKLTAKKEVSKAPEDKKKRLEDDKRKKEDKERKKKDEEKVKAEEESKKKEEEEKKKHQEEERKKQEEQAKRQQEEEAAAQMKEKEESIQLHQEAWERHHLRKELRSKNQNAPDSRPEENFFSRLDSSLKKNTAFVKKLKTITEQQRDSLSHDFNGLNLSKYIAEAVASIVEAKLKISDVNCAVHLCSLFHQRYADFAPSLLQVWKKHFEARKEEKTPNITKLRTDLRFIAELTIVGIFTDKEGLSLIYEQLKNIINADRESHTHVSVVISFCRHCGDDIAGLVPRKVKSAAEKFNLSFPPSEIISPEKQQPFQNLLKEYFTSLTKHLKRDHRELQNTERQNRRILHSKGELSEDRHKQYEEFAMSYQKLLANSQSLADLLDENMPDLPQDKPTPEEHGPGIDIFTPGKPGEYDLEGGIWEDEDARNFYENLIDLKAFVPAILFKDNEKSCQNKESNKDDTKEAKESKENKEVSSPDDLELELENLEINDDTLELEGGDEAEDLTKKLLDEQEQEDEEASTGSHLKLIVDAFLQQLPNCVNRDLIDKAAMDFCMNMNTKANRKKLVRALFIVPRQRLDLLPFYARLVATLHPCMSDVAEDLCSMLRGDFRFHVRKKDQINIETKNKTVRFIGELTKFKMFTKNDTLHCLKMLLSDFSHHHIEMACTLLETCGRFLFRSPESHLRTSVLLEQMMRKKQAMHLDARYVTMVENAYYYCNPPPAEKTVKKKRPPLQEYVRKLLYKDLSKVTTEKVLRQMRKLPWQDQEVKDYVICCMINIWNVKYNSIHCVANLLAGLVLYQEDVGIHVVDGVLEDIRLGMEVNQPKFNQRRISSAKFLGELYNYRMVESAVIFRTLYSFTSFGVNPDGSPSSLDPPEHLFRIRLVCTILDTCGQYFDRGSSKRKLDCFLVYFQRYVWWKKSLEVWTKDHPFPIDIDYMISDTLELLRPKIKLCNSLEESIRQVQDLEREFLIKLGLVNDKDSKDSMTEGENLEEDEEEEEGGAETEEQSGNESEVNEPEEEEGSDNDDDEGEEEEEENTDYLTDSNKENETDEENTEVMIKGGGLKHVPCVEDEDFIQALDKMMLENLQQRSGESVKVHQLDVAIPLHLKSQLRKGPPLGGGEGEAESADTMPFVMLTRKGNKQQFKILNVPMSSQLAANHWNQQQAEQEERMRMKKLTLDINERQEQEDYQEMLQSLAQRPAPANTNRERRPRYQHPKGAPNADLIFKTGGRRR
As to the kind of experiment: TurboID proximity labelling, streptavidin enrichment, mass spectrometry. To be noted: chain shown with the change; UPF3B KO + UPF3A KD cells; n = 3 biologically independent samples; read off a plot.

B1: FLAG-TurboID-UPF3B, Q9BZI7-2 K52D; RR56EE (protein)
chain: MKEEKEHRPKEKRVTLLTPAGATGSGGGTSGDSSKGEDKQDRNKEKKEALSDVVIEELPPTLTKEQLQEHLQPMPEHDYFEFFSNDTSLYPHMYARAYINFKNQEDIILFRDRFDGYVFLDNKGQEYPAIVEFAPFQKAAKKKTKKRDTKVGTIDDDPEYRKFLESYATDNEKMTSTPETLLEEIEAKNRELIAKKTTPLLSFLKNKQRMREEKREERRRREIERKRQREEERRKWKEEEKRKRKDIEKLKKIDRIPERDKLKDEPKIKLLKKPEKGDEKELDKREKAKKLDKENLSDERASGQSCTLPKRSDSELKDEKPKRPEDESGRDYREREREYERDQERILRERERLKRQEEERRRQKERYEKEKTFKRKEEEMKKEKDTLRDKGKKAESTESIGSSEKTEKKEEVVKRDRIRNKDRPAMQLYQPGARSRNRLCPPDDSTKSGDSAAERKQESGISHRKEGGEE
Turning to B1, the other: log2 fold change was -1.8.
